From patent US20030021779A1

Molecular target: C-antigen (human)
Experiment: cell-fixed ELISA, tumor cell lines

B1: H11-scFv (scFv)
scFv: DIVLTQSPGTLSLSPGERATLSCRASQSVSSSYLAWYQQKPGQAPRLLIYGASTRATGMPDRFSGSGSGTDFTLTISRLEPEDFAVYYCQQYGSSPQTPQITFGGGTKVEIKRTVAAPSVSGGGGSGGGGSGGGGSQVQLVESGGGVVQPGRSLRLSCAASGFPFRSFAMHWVRQALGKGLEWVAVISYDGSTKYYADSVKGRFTISRDTSKNTVYLKMNSLRTEDTAVYYCARDQSLLGDYDHYYGLDVWGKGTTVTVSSGSEQKLISEEDLNHHHHH
Binder B1 has a fold greater affinity than the control (BGA scFv) of 8 to 50 fold.
